Results as given in patent publication EP2651411B1.

Legend:
[1] = molecular target: carcinoembryonic antigen (CEA) (UniProt P06731); assay: SEC-HPLC; the conjugate without CEA eluted at 10.312 min and 10.331 min in serum
[2] = molecular target: somatostatin receptors on AR42J cells (rat); assay: apparent IC50; competition with ^111In(DTPA-octreotide) on AR42J cells, 3 h at RT
[3] = molecular target: gastrin-releasing peptide receptor on PC-3 cells (UniProt P30550); assay: competition with ^125I-BBN for binding to PC-3 cells, inhibitor 250 to 2 nM
UniProt P30550, sequence (P30550 whole entry): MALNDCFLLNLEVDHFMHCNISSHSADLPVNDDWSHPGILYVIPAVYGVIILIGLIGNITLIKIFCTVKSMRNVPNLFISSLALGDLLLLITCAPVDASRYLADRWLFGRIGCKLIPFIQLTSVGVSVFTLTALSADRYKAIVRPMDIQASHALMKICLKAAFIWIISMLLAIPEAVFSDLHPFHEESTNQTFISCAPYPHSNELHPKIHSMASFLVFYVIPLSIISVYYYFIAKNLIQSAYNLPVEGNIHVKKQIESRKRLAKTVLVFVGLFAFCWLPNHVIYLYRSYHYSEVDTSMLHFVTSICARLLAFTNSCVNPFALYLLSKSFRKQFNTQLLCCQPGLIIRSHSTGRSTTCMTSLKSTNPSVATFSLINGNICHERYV

[4] = molecular target: gastrin-releasing peptide receptor on PC-3 cells (UniProt P30550); assay: competition with ^125I-Bombesin for binding to 3x10^6 PC-3 cells, inhibitor 56 to 0.44 nM

UniProt P06731, sequence (P06731 35-685 limits assumed): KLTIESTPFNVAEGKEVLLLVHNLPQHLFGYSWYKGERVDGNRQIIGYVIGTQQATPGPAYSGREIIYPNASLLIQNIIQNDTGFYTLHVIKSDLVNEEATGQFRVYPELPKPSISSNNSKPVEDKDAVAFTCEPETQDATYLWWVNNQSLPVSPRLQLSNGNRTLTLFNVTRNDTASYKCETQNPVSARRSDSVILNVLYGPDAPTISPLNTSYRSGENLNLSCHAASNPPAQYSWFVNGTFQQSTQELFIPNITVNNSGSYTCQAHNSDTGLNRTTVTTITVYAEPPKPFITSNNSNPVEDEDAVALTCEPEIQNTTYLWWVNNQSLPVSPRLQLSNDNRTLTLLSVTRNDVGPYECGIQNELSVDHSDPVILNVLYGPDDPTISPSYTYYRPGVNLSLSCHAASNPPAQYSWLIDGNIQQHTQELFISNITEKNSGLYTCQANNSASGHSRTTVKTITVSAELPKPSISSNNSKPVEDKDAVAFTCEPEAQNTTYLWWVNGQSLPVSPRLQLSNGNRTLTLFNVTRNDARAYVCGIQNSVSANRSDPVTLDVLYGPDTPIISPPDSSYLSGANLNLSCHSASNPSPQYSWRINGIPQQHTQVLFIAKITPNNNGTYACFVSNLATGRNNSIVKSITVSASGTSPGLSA

| Substance | IC50 [2] | IC50 [3] | further results |
| --- | --- | --- | --- |
| Al^18F(NODA-MPAES)-hMN-14 Fab' |  |  | SEC-HPLC retention time of the major product after adding CEA [1]: 7.21 min |
| Al^19F(IMP466) (Al^19F complex of NOTA-D-Phe-Cys-Phe-D-Trp-Lys-Thr-Cys-Throl) (peptide) | 3.6 nM |  |  |
| IMP468 (NOTA-NH-(CH2)7CO-Gln-Trp-Val-Trp-Ala-Val-Gly-His-Leu-Met-NH2) (peptide) |  | 35.9 nM | IC50 [4]: 21.5 nM |
| ^69Ga(IMP466) (^69Ga complex of NOTA-D-Phe-Cys-Phe-D-Trp-Lys-Thr-Cys-Throl) (peptide) | 13 nM |  |  |

More lines, main results first:

| IC50 [2] | IC50 [3] | Substance | further results |
| --- | --- | --- | --- |
| 6.3 nM |  | ^115In(DTPA-octreotide) (peptide) |  |
|  | 24.4 nM | commercially available BBN peptide (bombesin positive control) |  |
